Measurements from US20200199533A1 (KING ABDULLAH UNIVERSITY OF SCIENCE AND TECHNOLOGY, published 2020).
One block for each molecule: values may come before it.

B1: CD34, native glycoprotein from human HSPCs (KG1a, CD34^pos-BM, CD34^pos-UCB, CD34^pos-AML) (ligand, UniProt P28906 32-385, looked up)
chain: SLDNNGTATPELPTQGTFSNVSTNVSYQETTTPSTLGSTSLHPVSQHGNEATTNITETTVKFTSTSVITSVYGNTNSSVQSQTSVISTVFTTPANVSTPETTLKPSLSPGNVSDLSTTSTSLATSPTKPYTSSSPILSDIKAEIKCSGIREVKLTQGICLEQNKTSSCAEFKKDRGEGLARVLCGEEQADADAGAQVCSLLLAQSEVRPQCLLLVLANRTEISSKLQLMKKHQSDLKKLGILDFTEQDVASHQSYSQKTLIALVTSGALLAVLGITGYFLMNRRSWSPTGERLGEDPYYTENGGGQGYSSGPGTSPEAQGKASVNRGAQENGTGQATSRNGHSARQHVVADTEL
modifications: native glycosylation (about 120-130 kDa form); sialylated O-glycans and tyrosine sulfation are shown to matter for selectin binding
notes: mature; also called E-selL CD34

Assays:
[1] = molecular target: CD44 (HCELL), native glycoprotein from human HSPCs (KG1a, CD34^pos fraction) (human) (UniProt P16070); assay: SPR, dissociation of captured CD44 from immobilized Hermes-3 during the wash after the lysate injection, s^-1 as in paragraph 58; fits the 8.6-fold ratio of paragraph 58
CD44 (HCELL), native glycoprotein from human HSPCs (KG1a, CD34^pos fraction) (human), sequence (P16070 21-742): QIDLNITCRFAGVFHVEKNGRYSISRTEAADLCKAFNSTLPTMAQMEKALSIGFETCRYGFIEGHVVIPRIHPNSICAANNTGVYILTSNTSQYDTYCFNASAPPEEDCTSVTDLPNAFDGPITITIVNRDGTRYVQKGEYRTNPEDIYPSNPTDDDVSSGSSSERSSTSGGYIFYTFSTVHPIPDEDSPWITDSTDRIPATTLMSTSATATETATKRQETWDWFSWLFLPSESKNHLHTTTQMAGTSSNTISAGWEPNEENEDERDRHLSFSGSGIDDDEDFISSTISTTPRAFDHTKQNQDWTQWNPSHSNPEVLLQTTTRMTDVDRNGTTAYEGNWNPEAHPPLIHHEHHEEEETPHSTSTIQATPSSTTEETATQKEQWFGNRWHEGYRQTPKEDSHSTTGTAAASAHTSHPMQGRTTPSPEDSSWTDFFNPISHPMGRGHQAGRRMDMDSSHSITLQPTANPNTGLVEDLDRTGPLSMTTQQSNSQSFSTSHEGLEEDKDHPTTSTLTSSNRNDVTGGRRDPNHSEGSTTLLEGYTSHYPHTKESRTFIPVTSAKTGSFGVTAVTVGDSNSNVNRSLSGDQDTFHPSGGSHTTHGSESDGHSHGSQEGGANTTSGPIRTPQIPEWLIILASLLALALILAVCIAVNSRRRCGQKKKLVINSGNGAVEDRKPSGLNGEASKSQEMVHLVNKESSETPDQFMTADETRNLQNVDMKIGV

[2] = molecular target: CD44 (HCELL), native glycoprotein from human HSPCs (KG1a, CD34^pos fraction) (human) (UniProt P16070); assay: SPR, capture of CD44 from KG1a lysate on immobilized Hermes-3, before normalization
[3] = molecular target: CD44 (HCELL), native glycoprotein from human HSPCs (KG1a, CD34^pos fraction) (human) (UniProt P16070); assay: SPR, capture of CD44 from KG1a lysate on immobilized Hermes-3, estimated from Equation 1
[4] = molecular target: CD34, native glycoprotein from human HSPCs (KG1a, CD34^pos-BM, CD34^pos-UCB, CD34^pos-AML) (human) (UniProt P28906); assay: Stamper-Woodruff assay, CHO-P cells on CD34 immunoprecipitate from KG1a
[5] = molecular target: CD34, native glycoprotein from human HSPCs (KG1a, CD34^pos-BM, CD34^pos-UCB, CD34^pos-AML) (human) (UniProt P28906); assay: Stamper-Woodruff assay, CHO-P cells on CD34 immunoprecipitate from CD34^pos-BM
[6] = molecular target: CD34, native glycoprotein from human HSPCs (KG1a, CD34^pos-BM, CD34^pos-UCB, CD34^pos-AML) (human) (UniProt P28906); assay: Stamper-Woodruff assay, CHO-E cells on CD34 immunoprecipitate from CD34^pos-BM
[7] = molecular target: CD34, native glycoprotein from human HSPCs (KG1a, CD34^pos-BM, CD34^pos-UCB, CD34^pos-AML) (human) (UniProt P28906); assay: Stamper-Woodruff assay, CHO-E cells on CD34 immunoprecipitate from KG1a
[8] = molecular target: CD34, PNGaseF-treated (human) (UniProt P28906); assay: SPR; CD34 captured on 4H11 from PNGaseF-treated KG1a lysate; koff-apparent similar to the control
[9] = molecular target: T1, PSGL-1, native glycoprotein from human HSPCs (KG1a, CD34^pos-BM) (human, UniProt Q14242 42-412, native glycosylation and tyrosine sulfation); assay: CD34 immunoprecipitation, Western blot for PSGL-1 (KPL-1-mAb)
T1 construct: mature; also called P-selectin glycoprotein ligand-1
T1 sequence (looked up): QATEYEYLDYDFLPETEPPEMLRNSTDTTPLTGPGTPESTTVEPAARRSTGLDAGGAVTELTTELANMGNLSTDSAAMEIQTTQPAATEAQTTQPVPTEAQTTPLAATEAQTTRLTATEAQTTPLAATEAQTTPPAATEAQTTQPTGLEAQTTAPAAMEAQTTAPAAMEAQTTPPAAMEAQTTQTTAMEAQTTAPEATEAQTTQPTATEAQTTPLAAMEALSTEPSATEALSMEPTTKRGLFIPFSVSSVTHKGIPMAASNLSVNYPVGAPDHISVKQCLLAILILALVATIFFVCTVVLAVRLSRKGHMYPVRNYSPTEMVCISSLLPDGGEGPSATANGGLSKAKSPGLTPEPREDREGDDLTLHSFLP
Source text: FIG. 7A is an autoradiograph of Western blots of P-Ig immunoprecipitates from KG1a and CD34^pos-BM lysates probing for CD34 (QBend-10 and EP373Y mAb) or PSGL-1 using KPL-1-mAb. Note that CD34 immunoprecipitates were free from any PSGL-1 contamination. (n=3 independent experiment). FIG. 7B is an autoradiograph of Western blots of CD34 and PSGL-1 immunoprecipitates probed with P-Ig (n=3). FIG. 7C is an autoradiograph of Western blots of E-Ig immunoprecipitates of E-sels from KG1 lysate that were eluted with 30 mM EDTA. The eluate was then immunoprecipitated with CD34-mAbs (4H11 and 581) prior to Western blot analysis with CD34, E-Ig, and P-Ig (n=2 independent experiments). FIG. 7D is a bar graph of Bound cells/field for adherent CHO-P cells. CD34 immunoprecipitates were prepared from CD34^pos-BM and KG1a lysates and spotted on glass slides to test for CHO-P binding using a Stamper-Woodruff assay. n=2 independent experiments. FIG. 7E is a bar graph of # of rolling cells per field showing Adhesion bar graph representing results obtained for the blot-rolling assay using CHO-P cell rolling at 0.25 dyne/cm² (rolling cells/field) over Western blots of immunoprecipitated CD34, CD44, CD43, or PSGL-1 from KG1a cell lysates. EDTA was used as a buffer (gray bars) or CHO-M cells (white bars). […] The resulting proteins were analyzed by Western blot for P-Ig binding.

[10] = molecular target: T1, PSGL-1, native glycoprotein from human …; assay: SPR; PSGL-1 captured from KG1a lysate on KPL-1-mAb; apparent association rate
[11] = molecular target: T1, PSGL-1, native glycoprotein from human …; assay: SPR; PSGL-1 captured from KG1a lysate on KPL-1-mAb, P-Ig injected, 2 mM CaCl2, 25 C; steady-state model; mean
[12] = molecular target: B1; assay: SPR; CD34 captured from KG1a lysate on 563-mAb; apparent rate constant
[13] = molecular target: T1, PSGL-1, native glycoprotein from human …; assay: SPR, steady-state fit of consecutive P-Ig injections (labels 5.6 to 1000 under the steps) in CaCl2 over PSGL-1 captured from KG1a lysate on KPL-1-mAb, 150 mM NaCl; the run shown; no rise in the P-Ig/EDTA step
[14] = molecular target: T1, PSGL-1, native glycoprotein from human …; assay: SPR; PSGL-1 captured from KG1a lysate on KPL-1-mAb; apparent rate constant; exponent printed as 10^4, read as 10^-4
[15] = molecular target: B1; assay: SPR, steady-state fit of consecutive P-Ig injections (labels 5.6 to 1000 under the steps) in CaCl2 over CD34 captured from KG1a lysate on 563-mAb, 150 mM NaCl; the run shown; no rise in the P-Ig/EDTA step
[16] = molecular target: B1; assay: SPR; CD34 captured from KG1a lysate on 563-mAb, P-Ig injected, 2 mM CaCl2, 25 C; steady-state model; mean
[17] = molecular target: B1; assay: SPR; CD34 captured on 563-mAb against PSGL-1 captured on KPL-1-mAb
[18] = molecular target: B1; assay: SPR; CD34 captured from KG1a lysate on 563-mAb; apparent association rate

- koff [1]: 5e-05 s⁻¹
- RUmax at the end of the lysate injection [2]: 559 RU
- ligand-capturing efficiency [3]: 20.2%
Molecule: CD44-mAb Hermes-3 (antibody)

- fold reduction in RUmax against the control lysate [8]: 1.4 fold
Molecule: recombinant E-selectin human immunoglobulin chimeric protein (Fc fusion)

- kon [10]: 474 M⁻¹ s⁻¹
- Kd [11]: 372 nM
- koff [12]: 0.0003 s⁻¹
- Kd [13]: ~373 nM
- koff [14]: 0.0002 s⁻¹
- Kd [15]: ~622 nM
- Kd [16]: 621 nM
- fold weaker KD than P-Ig to PSGL-1 [17]: ~1.7 fold
- kon [18]: 452 M⁻¹ s⁻¹
B2: Recombinant P-selectin human immunoglobulin chimeric protein (Fc fusion)
chain: WTYHYSTKAYSWNISRKYCQNRYTDLVAIQNKNEIDYLNKVLPYYSSYYWIGIRKNNKTWTWVGTKKALTNEAENWADNEPNNKRNNEDCVEIYIKSPSAPGKWNDEHCLKKKHALCYTASCQDMSCSKQGECLETIGNYTCSCYPGFYGPECEYVRECGELELPQHVLMNCSHPLGNFSFNSQCSFHCTDGYQVNGPSKLECLASGIWTNKPPQCLAAQCPPLKIPERGNMTCLHSAKAFQHQSSCSFSCEEGFALVGPEVVQCTASGVWTAPAPVCKAVQCQHLEAPSEGTMDCVHPLTAFAYGSSCKFECQPGYRVRGLDMLRCIDSGHWSAPLPTCEAISCEPLESPVHGSMDCSPSLRAFQYDTNCSFRCAEGFMLRGADIVRCDNLGQWTAPAPVCQALQCQDLPVPNEARVNCSHPFGAFRYQSVCSFTCNEGLLLVGASVLQCLATGNWNSVPPECQAIPCTPLLSPQNGTMTCVQPLGSSSYKSTCQFICDEGYSLSGPERLDCTRSGRWTDSPPMCEAIKCPELFAPEQGSLDCSDTRGEFNVGSTCHFSCDNGFKLEGPNNVECTTSGRWSATPPTCKGIASLPTPGVQCPALTTPGQGTMYCRHHPGTFGFNTTCYFGCNAGFTLIGDSTLSCRPSGQWTAVTPACRAVKCSELHVNKPIAMNCSNLWGNFSYGSICSFHCLEGQLLNGSAQTACQENGHWSTTVPTCQAGPLTIQEA

More lines, now with the values behind:

Molecule: P-selectin expressed on CHO-P cells (receptor)
- bound cells per field (bound cells per field) [4]: 41
- bound cells per field (bound cells per field) [5]: 8

Molecule: E-selectin expressed on CHO-E cells (receptor)
- bound cells (bound cells/field) [6]: 14
- bound cells (bound cells/field) [7]: 26

Molecule: B1
- binding result [9]: no binding
